Test results: publication PMC3563542, “Refolding and Enzyme Kinetic Studies on the Ferrochelatase of the Cyanobacterium Synechocystis sp. PCC 6803” (PLoS ONE, 2013)

Biological target: the molecule itself
Test: SEC; native size exclusion chromatography, Sephacryl S-100-HR, buffer B (50 mM Tris pH 8, 0.1 M NaCl, 0.5 M KCl, 20% glycerol, 20 mM Na-cholate, 0.1 mM TCEP) as eluent; monomer separated from higher molecular weight forms

B1: His-FeCh, recombinant type II ferrochelatase of Synechocystis sp. PCC 6803 with N-terminal His6-tag (enzyme, UniProt P54225 1-387, looked up)
chain: MGRVGVLLLNLGGPEKLEDVRPFLFNLFADPEIIRLPFPWLQKPLAWLISTLRAKKSQANYAEIGGGSPLLQITEAQASALTTRLERLGQDAKVYIGMRYWHPFTEEAVEKIKGDRLQRLVILPLYPHFSISTSGSSFRVLEEMWHNDPSLRQLDYSLIPSWYDHPGYLQAMADLIAQELKKFPNPDQAHIFFSAHGVPQSYVDEAGDPYQAEIEACTRLIMRTLDRPNQYTLAYQSRVGPVEWLKPYTEEALQKLGAEGIDDLLVVPISFVSEHIETLQEIDIEYREIAEEAGIDNFQRVPALNTHPVFIDALAQMVMDSLNDPPCTFETVPHPKKNMKMYPQERWEWGLTTAAEVWNGRLAMLGFIALLVELISGQGPLHFVGLL
notes: Ferrochelatase (hemH) of Synechocystis sp; PCC 6803, GenBank BAA10523.1, amplified from genomic DNA from the start codon to the stop codon; full length with the C-terminal CAB domain; tagged protein 47 kDa; also called full length His-FeCh; not shown: His6, N-terminal, kept
binding result: binds

B2: FeCh, recombinant full-length ferrochelatase of Synechocystis sp. PCC 6803 after removal of the N-terminal His6-tag (enzyme, UniProt P54225 1-387, looked up)
chain: MGRVGVLLLNLGGPEKLEDVRPFLFNLFADPEIIRLPFPWLQKPLAWLISTLRAKKSQANYAEIGGGSPLLQITEAQASALTTRLERLGQDAKVYIGMRYWHPFTEEAVEKIKGDRLQRLVILPLYPHFSISTSGSSFRVLEEMWHNDPSLRQLDYSLIPSWYDHPGYLQAMADLIAQELKKFPNPDQAHIFFSAHGVPQSYVDEAGDPYQAEIEACTRLIMRTLDRPNQYTLAYQSRVGPVEWLKPYTEEALQKLGAEGIDDLLVVPISFVSEHIETLQEIDIEYREIAEEAGIDNFQRVPALNTHPVFIDALAQMVMDSLNDPPCTFETVPHPKKNMKMYPQERWEWGLTTAAEVWNGRLAMLGFIALLVELISGQGPLHFVGLL
notes: Ferrochelatase (hemH) of Synechocystis sp; PCC 6803, GenBank BAA10523.1, full length with the C-terminal CAB domain; monomer 44 kDa; also called full-length FeCh; source: E. coli, His-FeCh after IMAC, His6-tag removed with thrombin, purified (HisGraviTrap, Sephacryl S-100-HR); not shown: His6, N-terminal, cleaved
binding result: binds
